In test [1] the target is 3-hydroxy-3-methylglutaryl coenzyme A reductase (HMGCoAR), catalytic domain. The test can be described thus: cell-based or functional assay.
For test [2], the target named is T1, proprotein convertase subtilisin/kexin type-9 (PCSK9), His-tagged (UniProt Q8NBP7 31-692).
T1 construct: PCSK9, recombinant His-tagged protein of the kit; The functional rows use this molecule; also called His-tagged PCSK9
The test can be described thus: ELISA; CircuLex in vitro PCSK9-LDLR binding assay kit; plate pre-coated with recombinant LDLR-AB domain; peptide (0.1-100 uM) in reaction buffer, then His-tagged PCSK9 added; 2 h at room temperature; detected with biotinylated anti-His-tag antibody, HRP-streptavidin and TMB, absorbance at 450 nm. As to conditions: both partners purified. (In general: In an ELISA, binding on a coated surface is turned into a signal by an enzyme label.)

Chain of 3-hydroxy-3-methylglutaryl coenzyme A reductase (HMGCoAR), catalytic domain (P04035 whole entry, the tested form may be a part): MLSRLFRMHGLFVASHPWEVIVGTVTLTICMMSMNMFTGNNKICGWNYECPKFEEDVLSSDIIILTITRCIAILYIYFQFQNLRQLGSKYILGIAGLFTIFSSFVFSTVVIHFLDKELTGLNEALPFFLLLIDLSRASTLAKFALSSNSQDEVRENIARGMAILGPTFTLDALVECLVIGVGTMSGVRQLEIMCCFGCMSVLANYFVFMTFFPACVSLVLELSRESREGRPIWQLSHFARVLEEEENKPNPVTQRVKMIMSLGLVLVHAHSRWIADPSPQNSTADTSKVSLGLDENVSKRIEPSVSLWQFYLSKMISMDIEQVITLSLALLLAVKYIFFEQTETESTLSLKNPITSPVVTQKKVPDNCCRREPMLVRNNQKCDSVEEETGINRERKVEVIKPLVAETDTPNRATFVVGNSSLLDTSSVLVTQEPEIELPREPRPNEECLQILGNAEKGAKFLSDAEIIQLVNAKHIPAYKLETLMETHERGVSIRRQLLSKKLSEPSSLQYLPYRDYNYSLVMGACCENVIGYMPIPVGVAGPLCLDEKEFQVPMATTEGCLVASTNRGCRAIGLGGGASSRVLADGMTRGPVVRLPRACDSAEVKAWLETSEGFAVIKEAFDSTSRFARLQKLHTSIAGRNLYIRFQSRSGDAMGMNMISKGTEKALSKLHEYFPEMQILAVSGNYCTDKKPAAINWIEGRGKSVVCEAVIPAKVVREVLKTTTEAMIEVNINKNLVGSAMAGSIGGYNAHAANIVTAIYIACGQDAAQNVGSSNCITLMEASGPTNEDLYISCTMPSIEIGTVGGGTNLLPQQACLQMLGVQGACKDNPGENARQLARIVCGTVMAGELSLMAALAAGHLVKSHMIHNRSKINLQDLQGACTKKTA
T1 sequence (Q8NBP7 31-692): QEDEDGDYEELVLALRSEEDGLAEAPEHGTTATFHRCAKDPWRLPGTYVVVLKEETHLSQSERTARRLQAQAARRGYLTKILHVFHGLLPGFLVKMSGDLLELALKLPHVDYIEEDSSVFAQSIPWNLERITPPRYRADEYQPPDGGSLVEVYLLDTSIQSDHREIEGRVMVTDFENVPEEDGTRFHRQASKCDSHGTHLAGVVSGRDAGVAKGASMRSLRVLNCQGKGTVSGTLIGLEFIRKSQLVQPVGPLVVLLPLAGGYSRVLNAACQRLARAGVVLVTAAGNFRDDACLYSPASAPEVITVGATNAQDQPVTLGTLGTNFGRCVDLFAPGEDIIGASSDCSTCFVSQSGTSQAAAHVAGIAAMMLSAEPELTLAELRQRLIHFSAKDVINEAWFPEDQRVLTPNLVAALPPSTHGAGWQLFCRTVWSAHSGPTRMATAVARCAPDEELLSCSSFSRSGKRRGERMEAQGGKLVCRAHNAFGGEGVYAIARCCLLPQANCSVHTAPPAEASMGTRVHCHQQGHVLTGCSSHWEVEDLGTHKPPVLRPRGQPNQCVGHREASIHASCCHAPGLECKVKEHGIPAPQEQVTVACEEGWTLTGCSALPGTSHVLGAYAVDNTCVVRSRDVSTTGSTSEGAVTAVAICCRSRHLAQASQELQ

B1: P5-met (LPKHSDAD), metabolite of lupin peptide P5 (peptide)
peptide: LPKHSDAD
notes: source: synthetic peptide (GeneScript, >95% purity)
For the molecule B1, the “in vitro HMGCoAR activity (NADPH oxidation, absorbance at 340 nm, 37 °C), peptide 10-500 µM; IC50” value in test [1] stood at 175 µM. The IC50 (as a rule, the midpoint of a concentration-inhibition curve) in test [2] was determined as 1.7 µM.

B2: lupin peptide P5 (LILPKHSDAD) (peptide)
peptide: LILPKHSDAD
notes: peptide from the peptic hydrolysate of lupin protein; also called parent peptide; source: synthetic peptide (GeneScript, >95% purity)
Consider B2, for which the “in vitro HMGCoAR activity (NADPH oxidation, absorbance at 340 nm, 37 °C), peptide 10-500 µM; IC50” value in test [1] worked out at 147 µM. Further, the IC50 in test [2] turned out to be 1.3 µM.

For the origin of these results see PMC8000724, “Trans-Epithelial Transport, Metabolism, and Biological Activity Assessment of the Multi-Target Lupin Peptide [sequence] (P5) and Its Metabolite [sequence] (P5-Met)” (Nutrients, 2021).
